# According to patent publication US20140296492A1:
# Molecular target: HLA-A2-… complex on cells (human)
# Assay: cell-based or functional assay
substance,measurement,value
anti-HLA-A2 antibody BB7.2,"blocking of WT1 Clone 45 CAR-mediated cytotoxicity against …-pulsed DIMT BLCL (51Cr release), antibody at 5 µg/ml",45%
